A word on the stoichiometry N: it is a count of units in the complex or per binding partner.

The values that follow come from paper PMC3368898.

Holding throughout (assay): […]; 10 mM Tris pH 7.4, 150 mM NaCl, 1 mM EDTA
Experiment [1] deals with PfC domain of EPclA (residues 363-426) after removal of thioredoxin by thrombin.
In experiment [2] the target is Trx–PfC, PfC domain of EPclA (residues 363-426) fused to thioredoxin.
For experiment [3], the target named is PfN–PCoil fragment of EPclA (residues 1-250).
The target of experiment [4] is Col–PfC fragment, endogenous proteolytic fragment of rEPclA with only the Col and PfC domains (Escherichia coli O157:H7 strain RIMD 0509952 (Sakai)).

Consider “PfC domain of EPclA (residues 363-426) after removal of thioredoxin by thrombin (domain or fragment)”, for which the stoichiometry N in experiment [1] is 3.

On to “Trx–PfC, PfC domain of EPclA (residues 363-426) fused to thioredoxin (domain or fragment)”, for which the stoichiometry N in experiment [2] came out at 3. In experiment [3], “PfN–PCoil fragment of EPclA (residues 1-250) (domain or fragment)” registered a stoichiometry N of 3. As to “Col–PfC fragment, endogenous proteolytic fragment of rEPclA with only the Col and PfC domains (domain or fragment)”, the stoichiometry N in experiment [4] came to 3.
